For the data set the following is noted: glycan lost.

B1: Cedar virus fusion protein F (CedV F): g2 (protein)
parent chain: MSNKRTTVLIIISYTLFYLNNAAIVGFDFDKLNKIGVVQGRVLNYKIKGDPMTKDLVLKFIPNIVNITECVREPLSRYNETVRRLLLPIHNMLGLYLNNTNAKMTGLMIAGVIMGGIAIGIATAAQITAGFALYEAKKNTENIQKLTDSIMKTQDSIDKLTDSVGTSILILNKLQTYINNQLVPNLELLSCRQNKIEFDLMLTKYLVDLMTVIGPNINNPVNKDMTIQSLSLLFDGNYDIMMSELGYTPQDFLDLIESKSITGQIIYVDMENLYVVIRTYLPTLIEVPDAQIYEFNKITMSSNGGEYLSTIPNFILIRGNYMSNIDVATCYMTKASVICNQDYSLPMSQNLRSCYQGETEYCPVEAVIASHSPRFALTNGVIFANCINTICRCQDNGKTITQNINQFVSMIDNSTCNDVMVDKFTIKVGKYMGRKDINNINIQIGPQIIIDKVDLSNEINKMNQSLKDSIFYLREAKRILDSVNISLISPSVQLFLIIISVLSFIILLIIIVYLYCKSKHSYKYNKFIDDPDYYNDYKRERINGKASKSNNIYYVGD
Turning to B1, the localisation_or_trafficking result was “increases”; the “other: cell-cell fusion activity” value is “decreases”; the “other: cell-cell fusion activity, fold_change” value was “decreases”; the “other: proteolytic processing” value is “no change”.

B2: Cedar virus fusion protein F (CedV F): g1 (protein)
parent chain: B1 parent chain
For the protein B2, the expression_or_secretion result is reported as “no change” and the localisation_or_trafficking entry was “decreases”.

B3: Cedar virus fusion protein F (CedV F): g6 (protein)
parent chain: B1 parent chain
Turning to B3, the localisation_or_trafficking entry was “decreases” and the “other: proteolytic processing” value is recorded as “no change”.

B4: Cedar virus fusion protein F (CedV F): g3 (protein)
parent chain: B1 parent chain
In the case of B4, the localisation_or_trafficking result is recorded as “decreases” and the “other: proteolytic processing” value was “no change”.

B5: Cedar virus fusion protein F (CedV F): g4 (protein)
parent chain: B1 parent chain
As to B5, the expression_or_secretion result was “no change”.

The values above are taken from article PMC9400332.
